Reference: patent publication US20230002496A1 (STAIDSON BEIJING BIOPHARMACEUTICALS, published 2023)
Read-outs that look alike come from different tables or passages of the source.

T1: human GM-CSFRα-6His (human, UniProt P15509 23-320)
T1 construct: pTT5-GMRa-6his (ECD), made in 293F cells; also called GMRah; GMRa-6his(ECD)
T1 sequence: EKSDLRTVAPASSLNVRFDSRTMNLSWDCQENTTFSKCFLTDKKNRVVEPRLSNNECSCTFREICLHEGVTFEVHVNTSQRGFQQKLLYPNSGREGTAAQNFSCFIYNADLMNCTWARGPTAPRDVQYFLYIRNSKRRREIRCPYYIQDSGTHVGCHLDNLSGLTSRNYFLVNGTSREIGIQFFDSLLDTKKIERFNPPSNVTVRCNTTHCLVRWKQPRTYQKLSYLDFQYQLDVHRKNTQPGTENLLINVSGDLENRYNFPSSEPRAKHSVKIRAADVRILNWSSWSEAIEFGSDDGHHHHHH


Columns and labels:
Assay in all cases: ELISA on human GM-CSFRα, antibodies as human IgG1; x axis 'Log Ab concentration', no unit
human GM-CSFRα-6His [1] = target: T1, human GM-CSFRα-6His
human GM-CSFRα-6His [2] = target: T1, human GM-CSFRα-6His; remark: listed apart in the source
human GM-CSFRα-6His [3] = target: T1, human GM-CSFRα-6His; remark: listed apart in the source

Row | Binder | binding result (human GM-CSFRα-6His [1]) | binding result (human GM-CSFRα-6His [2]) | further results
1 | E09-IgG1 (antibody, V domains shown, human IgG1, human kappa; also called E9) VH: QMQLVQSGAEVKKPGASVKVSCKVSGHTLTELSMHWVRQAPGKGLEWMGGFDPEDGETIYAQKFQGRVTMTGDTSTDTAYLELSSLRSEDTALYYCATGRYCGHASCYGFDYWGQGTLVTVSS VL: EIVMTQSPATLSLSPGERATLSCRASQSVSSYLAWYQQKPGQAPRLLIYGASSRATGIPDRFSGSGSGTDFTLTISRLEPEDFAVYYCQQYNNWPPTFGQGTKLEIK | binds | – | –
2 | E172-IgG1 (antibody, V domains shown, human IgG1, human kappa) VH: QMQLVQSGAEVKKPGASVKVSCKVSGYTLTELSMHWVRQAPGKGLEWMGGFDPEDGETIYAQKFQGRVTMTGDTSTDTAYLELSSLRSEDTALYYCATGRYANLYNNYGFDYWGQGTLVTVSS VL: EIVMTQSPATLSLSPGERATLSCRASQSVSSYLAWYQQKPGQAPRLLIYGASSRATGIPDRFSGSGSGTDFTLTISRLEPEDFAVYYCQQYNNWPPTFGQGTKLEIK | – | – | binding result (human GM-CSFRα-6His [3]): binds
3 | EII55-IgG1 (antibody, V domains shown, human IgG1, human kappa) VH: QMQLVQSGAEVKKPGASVKVSCKVSGYTLTELSIHWVRQAPGKGLEWMGGFDGDWHETIYAQKFQGRVTMTGDTSTDTAYLELSSLRSEDTALYYCATGRYTSLDATYGFDYWGQGTLVTVSS VL: EIVMTQSPATLSLSPGERATLSCRASQSVSSYLAWYQQKPGQAPRLLIYGASSRATGIPDRFSGSGSGTDFTLTISRLEPEDFAVYYCQQYGNRPDTFGQGTKLEIK | – | binds | –
4 | T119-IgG1 (antibody, V domains shown, human IgG1, human kappa; parent antibody) VH: QMQLVQSGAEVKKPGASVKVSCKVSGHTLTELSIHWVRQAPGKGLEWMGGFDPEDGETNYAQKSQGRVTMTGDTSTDTAYLELSSLRSEDTALYYCATGRYCSTDTCYGFDYWGQGTLVTVSS VL: EIVMTQSPATLSLSPGERATLSCRASQSVSSYLAWYQQKPGQAPRLLIYGASSRATGIPDRFSGSGSGTDFTLTISRLEPEDFAVYYCQQYNNWPPTFGQGTKLEIK | binds | – | –
5 | E87-IgG1 (antibody, V domains shown, human IgG1, human kappa) VH: QMQLVQSGAEVKKPGASVKVSCKVSGYTLTELSIHWVRQAPGKGLEWMGGFDPEDGETIYAQKSQGRVTMTGDTSTDTAYLELSSLRSEDTALYYCATGRYVSLFFNYGFDYWGQGTLVTVSS VL: EIVMTQSPATLSLSPGERATLSCRASQSVSSYLAWYQQKPGQAPRLLIYGASSRATGIPDRFSGSGSGTDFTLTISRLEPEDFAVYYCQQYNNWPPTFGQGTKLEIK | – | binds | –
6 | E85-IgG1 (antibody, V domains shown, human IgG1, human kappa) VH: QMQLVQSGAEVKKPGASVKVSCKVSGYTLTELSIHWVRQAPGKGLEWMGGFDPEDGETIYAQKSQGRVTMTGDTSTDTAYLELSSLRSEDTALYYCATGRYSSYFTNYGFDYWGQGTLVTVSS VL: EIVMTQSPATLSLSPGERATLSCRASQSVSSYLAWYQQKPGQAPRLLIYGASSRATGIPDRFSGSGSGTDFTLTISRLEPEDFAVYYCQQYNNWPYTFGQGTKLEIK | – | binds | –
7 | E164-IgG1 (antibody, V domains shown, human IgG1, human kappa) VH: QMQLVQSGAEVKKPGASVKVSCKVSGHTLTELSMHWVRQAPGKGLEWMGGFDPEDGETIYAQKSQGRVTMTGDTSTDTAYLELSSLRSEDTALYYCATGRYTNDFANYGFDYWGQGTLVTVSS VL: EIVMTQSPATLSLSPGERATLSCRASQSVSSYLAWYQQKPGQAPRLLIYGASSRATGIPDRFSGSGSGTDFTLTISRLEPEDFAVYYCQQYNNWPYTFGQGTKLEIK | – | – | binding result (human GM-CSFRα-6His [3]): binds
8 | E113-IgG1 (antibody, V domains shown, human IgG1, human kappa) VH: QMQLVQSGAEVKKPGASVKVSCKVSGYTLTELSIHWVRQAPGKGLEWMGGFDPEDGETIYAQKSQGRVTMTGDTSTDTAYLELSSLRSEDTALYYCATGRYTELFASYGFDYWGQGTLVTVSS VL: EIVMTQSPATLSLSPGERATLSCRASQSVSSYLAWYQQKPGQAPRLLIYGASSRATGIPDRFSGSGSGTDFTLTISRLEPEDFAVYYCQQYNNWPYTFGQGTKLEIK | – | binds | –
9 | E90-IgG1 (antibody, V domains shown, human IgG1, human kappa) VH: QMQLVQSGAEVKKPGASVKVSCKVSGYTLTELSIHWVRQAPGKGLEWMGGFDPEDGETIYAQKSQGRVTMTGDTSTDTAYLELSSLRSEDTALYYCATGRYTGLYASYGFDYWGQGTLVTVSS VL: EIVMTQSPATLSLSPGERATLSCRASQSVSSYLAWYQQKPGQAPRLLIYGASSRATGIPDRFSGSGSGTDFTLTISRLEPEDFAVYYCQQYDNWPYTFGQGTKLEIK | – | – | binding result (human GM-CSFRα-6His [3]): binds
10 | E34-IgG1 (antibody, V domains shown, human IgG1, human kappa) VH: QMQLVQSGAEVKKPGASVKVSCKVSGYTLTELSIHWVRQAPGKGLEWMGGFDPEDGETIYAQKFQGRVTMTGDTSTDTAYLELSSLRSEDTALYYCATGRYSFTDLAYGFDYWGQGTLVTVSS VL: EIVMTQSPATLSLSPGERATLSCRASQSVSSYLAWYQQKPGQAPRLLIYGASSRATGIPDRFSGSGSGTDFTLTISRLEPEDFAVYYCQQYDSSPPTFGQGTKLEIK | binds | – | –
11 | E105-IgG1 (antibody, V domains shown, human IgG1, human kappa) VH: QMQLVQSGAEVKKPGASVKVSCKVSGYTLTELSIHWVRQAPGKGLEWMGGFDPEDGETIYAQKFQGRVTMTGDTSTDTAYLELSSLRSEDTALYYCATGRYTSLMFTYGFDYWGQGTLVTVSS VL: EIVMTQSPATLSLSPGERATLSCRASQSVSSYLAWYQQKPGQAPRLLIYGASSRATGIPDRFSGSGSGTDFTLTISRLEPEDFAVYYCQQYNNWPPTFGQGTKLEIK | – | binds | –
12 | E16-IgG1 (antibody, V domains shown, human IgG1, human kappa) VH: QMQLVQSGAEVKKPGASVKVSCKVSGYTLTELSIHWVRQAPGKGLEWMGGFDPEDGEAIYAQKSQGRVTMTGDTSTDTAYLELSSLRSEDTALYYCATGRYSEHSTSYGFDYWGQGTLVTVSS VL: EIVMTQSPATLSLSPGERATLSCRASQSVSSYLAWYQQKPGQAPRLLIYGASSRATGIPDRFSGSGSGTDFTLTISRLEPEDFAVYYCQQYDSWPYTFGQGTKLEIK | binds | – | –
13 | E30-IgG1 (antibody, V domains shown, human IgG1, human kappa) VH: QMQLVQSGAEVKKPGASVKVSCKVSGHTLTELSIHWVRQAPGKGLEWMGGFDPEDGETIYAQKFQGRVTMTGDTSTDTAYLELSSLRSEDTALYYCATGRYCSTDTCYGFDYWGQGTLVTVSS VL: EIVMTQSPATLSLSPGERATLSCRASQSVSSYLAWYQQKPGQAPRLLIYGASSRATGIPDRFSGSGSGTDFTLTISRLEPEDFAVYYCQQYDNSPHTFGQGTKLEIK | binds | – | –
14 | E27-IgG1 (antibody, V domains shown, human IgG1, human kappa) VH: QMQLVQSGAEVKKPGASVKVSCKVSGYTLTELSIHWVRQAPGKGLEWMGGFDPEDGETIYAQKFQGRVTMTGDTSTDTAYLELSSLRSEDTALYYCATGRYISFMFTYGFDYWGQGTLVTVSS VL: EIVMTQSPATLSLSPGERATLSCRASQSVSSYLAWYQQKPGQAPRLLIYGASSRATGIPDRFSGSGSGTDFTLTISRLEPEDFAVYYCQQYNNWPPTFGQGTKLEIK | binds | – | –

Further lines, with some results ahead:

Row | binding result (human GM-CSFRα-6His [1]) | binding result (human GM-CSFRα-6His [2]) | Binder | further results
15 | – | binds | E200a-IgG1 (antibody, V domains shown, human IgG1, human kappa) VH: QMQLVQSGAEVKKPGASVKVSCKVSGYTLTELPMHWVRQAPGKGLEWMGGFDPEDGETIYAQKFQGRVTMTGDTSTDTAYLELSSLRSEDTALYYCATGRYTIITTNYGFDYWGQGTLVTVSS VL: EIVMTQSPATLSLSPGERATLSCRASQSVSSYLAWYQQKPGQAPRLLIYGASSRATGIPDRFSGSGSGTDFTLTISRLEPEDFAVYYCQQYDNWPPTFGQGTKLEIK | –
16 | – | binds | E40-IgG1 (antibody, V domains shown, human IgG1, human kappa) VH: QMQLVQSGAEVKKPGASVKVSCKVSGHTLTELSIHWVRQAPGKGLEWMGGFDPEDGETIYAQKFQGRVTMTGDTSTDTAYLELSSLRSEDTALYYCATGRYTSLDESYGFDYWGQGTLVTVSS VL: EIVMTQSPATLSLSPGERATLSCRASQSVSSYLAWYQQKPGQAPRLLIYGASSRATGIPDRFSGSGSGTDFTLTISRLEPEDFAVYYCQQYDNSPYTFGQGTKLEIK | –
17 | binds | – | E29-IgG1 (antibody, V domains shown, human IgG1, human kappa) VH: QMQLVQSGAEVKKPGASVKVSCKVSGHTLTELSIHWVRQAPGKGLEWMGGFDPEDGETIYAQKFQGRVTMTGDTSTDTAYLELSSLRSEDTALYYCATGRYCFPDTCYGFDYWGQGTLVTVSS VL: EIVMTQSPATLSLSPGERATLSCRASQSVSSYLAWYQQKPGQAPRLLIYGASSRATGIPDRFSGSGSGTDFTLTISRLEPEDFAVYYCQQYDNSPHTFGQGTKLEIK | –
18 | binds | – | E54-IgG1 (antibody, V domains shown, human IgG1, human kappa) VH: QMQLVQSGAEVKKPGASVKVSCKVSGYTLTELSMHWVRQAPGKGLEWMGGFDPEDGETIYAQKFQGRVTMTGDTSTDTAYLELSSLRSEDTALYYCATGRYSSYDIAYGFDYWGQGTLVTVSS VL: EIVMTQSPATLSLSPGERATLSCRASQSVSSYLAWYQQKPGQAPRLLIYGASSRATGIPDRFSGSGSGTDFTLTISRLEPEDFAVYYCQQYNSSPPTFGQGTKLEIK | –
19 | – | binds | E39-IgG1 (antibody, V domains shown, human IgG1, human kappa) VH: QMQLVQSGAEVKKPGASVKVSCKVSGHTLTELSIHWVRQAPGKGLEWMGGFDPEDGETIYAQKFQGRVTMTGDTSTDTAYLELSSLRSEDTALYYCATGRYCSSDLCYGFDYWGQGTLVTVSS VL: EIVMTQSPATLSLSPGERATLSCRASQSVSSYLAWYQQKPGQAPRLLIYGASSRATGIPDRFSGSGSGTDFTLTISRLEPEDFAVYYCQQYDNSPHTFGQGTKLEIK | –
